Experimental findings from publication PMC12048511, “An asymmetric nautilus-like HflK/C assembly controls FtsH proteolysis of membrane proteins” (The EMBO Journal, 2025) are described below.

This test deals with T1, FtsH with a C-terminal FLAG epitope (chromosomally encoded) (E. coli, UniProt P0AAI3 1-644).
T1 construct: FtsH, E. coli BL21(DE3), product of the chromosomal ftsH gene with a tag appended to its C-terminus; residues 31-97 (periplasmic domain) are modelled in PDB 9CZ2; Homohexamer; one or two hexamers per HflK/C assembly; also called FtsH-FLAG (C-terminal); tagged FtsH; source: E. coli BL21(DE3), chromosomal ftsH locus modified (no overproduction); anti-FLAG M2 resin from membranes solubilised with …
T1 sequence (P0AAI3 whole entry, the tested form may be a part): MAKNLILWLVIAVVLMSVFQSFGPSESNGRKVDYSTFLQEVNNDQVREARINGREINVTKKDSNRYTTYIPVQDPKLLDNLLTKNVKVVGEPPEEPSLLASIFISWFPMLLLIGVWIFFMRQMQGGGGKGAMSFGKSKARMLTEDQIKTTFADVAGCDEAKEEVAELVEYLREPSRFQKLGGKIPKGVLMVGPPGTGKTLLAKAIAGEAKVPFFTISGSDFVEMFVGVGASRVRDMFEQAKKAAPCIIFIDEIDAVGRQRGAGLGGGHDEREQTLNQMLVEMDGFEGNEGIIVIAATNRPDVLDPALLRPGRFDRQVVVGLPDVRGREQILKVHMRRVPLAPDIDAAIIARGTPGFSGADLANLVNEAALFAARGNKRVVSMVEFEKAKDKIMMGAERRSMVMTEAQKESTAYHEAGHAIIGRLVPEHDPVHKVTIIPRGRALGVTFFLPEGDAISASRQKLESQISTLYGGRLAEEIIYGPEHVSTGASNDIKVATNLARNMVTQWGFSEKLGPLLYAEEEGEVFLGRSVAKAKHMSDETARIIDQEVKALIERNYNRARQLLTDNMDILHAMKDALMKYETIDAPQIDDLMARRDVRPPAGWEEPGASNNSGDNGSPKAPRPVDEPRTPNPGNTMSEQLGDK
Briefly: co-IP; anti-FLAG M2 resin on solubilised membranes of E. coli with chromosomally FLAG-tagged FtsH (1% DDM or 2% GDN; also detergent-free with Carboxy-DIBMA), eluted with FLAG peptide; no overproduction. As to conditions: partners not purified.

B1: HflK (endogenous) (natural protein, E. coli (endogenous in BL21(DE3)), UniProt P0ABC7 1-419, looked up)
chain: MAWNQPGNNGQDRDPWGSSKPGGNSEGNGNKGGRDQGPPDLDDIFRKLSKKLGGLGGGKGTGSGGGSSSQGPRPQLGGRVVTIAAAAIVIIWAASGFYTIKEAERGVVTRFGKFSHLVEPGLNWKPTFIDEVKPVNVEAVRELAASGVMLTSDENVVRVEMNVQYRVTNPEKYLYSVTSPDDSLRQATDSALRGVIGKYTMDRILTEGRTVIRSDTQRELEETIRPYDMGITLLDVNFQAARPPEEVKAAFDDAIAARENEQQYIREAEAYTNEVQPRANGQAQRILEEARAYKAQTILEAQGEVARFAKLLPEYKAAPEITRERLYIETMEKVLGNTRKVLVNDKGGNLMVLPLDQMLKGGNAPAAKSDNGASNLLRLPPASSSTTSGASNTSSTSQGDIMDQRRANAQRNDYQRQGE
notes: HflK, E. coli BL21(DE3), SPFH-domain protein; residues 79-355 modelled for most subunits in PDB 9CZ2; 24 alternating HflK and HflC subunits form the nautilus-like assembly; also called HflK/C subunit; source: endogenous, E. coli BL21(DE3), co-purified with FtsH-FLAG on anti-FLAG resin
On to B1, for which the binding result is on record as “binds”.
